Reference: patent US20220213456

Key:
[1] = tested on: T1, OMNI-36 (Blastopirellula marina); experiment: cleavage_in_vitro; settings: TXTL; PAM NNYCCC; V1, V2 tested
T1 sequence: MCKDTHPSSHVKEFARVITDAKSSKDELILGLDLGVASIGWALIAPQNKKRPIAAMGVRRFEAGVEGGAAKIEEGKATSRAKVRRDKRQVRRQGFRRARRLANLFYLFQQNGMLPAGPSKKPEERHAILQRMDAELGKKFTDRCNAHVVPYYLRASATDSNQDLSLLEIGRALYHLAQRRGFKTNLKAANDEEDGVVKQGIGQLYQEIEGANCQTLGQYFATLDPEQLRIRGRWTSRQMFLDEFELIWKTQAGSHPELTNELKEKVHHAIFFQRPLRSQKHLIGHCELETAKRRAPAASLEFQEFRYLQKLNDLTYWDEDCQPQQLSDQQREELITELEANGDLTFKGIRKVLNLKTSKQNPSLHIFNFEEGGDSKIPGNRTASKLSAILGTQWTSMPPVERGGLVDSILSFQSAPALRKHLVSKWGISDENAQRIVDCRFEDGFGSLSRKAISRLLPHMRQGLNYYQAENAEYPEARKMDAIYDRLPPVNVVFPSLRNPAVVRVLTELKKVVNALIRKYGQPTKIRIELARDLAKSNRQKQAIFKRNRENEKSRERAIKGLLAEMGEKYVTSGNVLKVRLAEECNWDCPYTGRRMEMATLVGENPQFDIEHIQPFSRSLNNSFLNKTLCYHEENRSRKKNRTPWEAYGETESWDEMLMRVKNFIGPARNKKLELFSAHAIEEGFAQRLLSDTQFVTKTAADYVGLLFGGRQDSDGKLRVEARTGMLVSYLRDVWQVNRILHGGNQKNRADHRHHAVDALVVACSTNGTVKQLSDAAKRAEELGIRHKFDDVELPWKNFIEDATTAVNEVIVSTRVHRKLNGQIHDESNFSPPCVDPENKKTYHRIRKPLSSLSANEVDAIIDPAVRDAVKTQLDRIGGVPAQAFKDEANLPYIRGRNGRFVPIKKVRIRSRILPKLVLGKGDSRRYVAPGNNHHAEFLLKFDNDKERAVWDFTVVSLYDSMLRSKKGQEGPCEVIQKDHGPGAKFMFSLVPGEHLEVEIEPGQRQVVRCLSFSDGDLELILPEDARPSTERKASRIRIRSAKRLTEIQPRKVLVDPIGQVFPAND

[2] = tested on: T2, OMNI-53 (Clostridium sp. AF02-29); experiment: cleavage_in_vitro; settings: TXTL; PAM NRHR (specific NAWA)
T2 sequence: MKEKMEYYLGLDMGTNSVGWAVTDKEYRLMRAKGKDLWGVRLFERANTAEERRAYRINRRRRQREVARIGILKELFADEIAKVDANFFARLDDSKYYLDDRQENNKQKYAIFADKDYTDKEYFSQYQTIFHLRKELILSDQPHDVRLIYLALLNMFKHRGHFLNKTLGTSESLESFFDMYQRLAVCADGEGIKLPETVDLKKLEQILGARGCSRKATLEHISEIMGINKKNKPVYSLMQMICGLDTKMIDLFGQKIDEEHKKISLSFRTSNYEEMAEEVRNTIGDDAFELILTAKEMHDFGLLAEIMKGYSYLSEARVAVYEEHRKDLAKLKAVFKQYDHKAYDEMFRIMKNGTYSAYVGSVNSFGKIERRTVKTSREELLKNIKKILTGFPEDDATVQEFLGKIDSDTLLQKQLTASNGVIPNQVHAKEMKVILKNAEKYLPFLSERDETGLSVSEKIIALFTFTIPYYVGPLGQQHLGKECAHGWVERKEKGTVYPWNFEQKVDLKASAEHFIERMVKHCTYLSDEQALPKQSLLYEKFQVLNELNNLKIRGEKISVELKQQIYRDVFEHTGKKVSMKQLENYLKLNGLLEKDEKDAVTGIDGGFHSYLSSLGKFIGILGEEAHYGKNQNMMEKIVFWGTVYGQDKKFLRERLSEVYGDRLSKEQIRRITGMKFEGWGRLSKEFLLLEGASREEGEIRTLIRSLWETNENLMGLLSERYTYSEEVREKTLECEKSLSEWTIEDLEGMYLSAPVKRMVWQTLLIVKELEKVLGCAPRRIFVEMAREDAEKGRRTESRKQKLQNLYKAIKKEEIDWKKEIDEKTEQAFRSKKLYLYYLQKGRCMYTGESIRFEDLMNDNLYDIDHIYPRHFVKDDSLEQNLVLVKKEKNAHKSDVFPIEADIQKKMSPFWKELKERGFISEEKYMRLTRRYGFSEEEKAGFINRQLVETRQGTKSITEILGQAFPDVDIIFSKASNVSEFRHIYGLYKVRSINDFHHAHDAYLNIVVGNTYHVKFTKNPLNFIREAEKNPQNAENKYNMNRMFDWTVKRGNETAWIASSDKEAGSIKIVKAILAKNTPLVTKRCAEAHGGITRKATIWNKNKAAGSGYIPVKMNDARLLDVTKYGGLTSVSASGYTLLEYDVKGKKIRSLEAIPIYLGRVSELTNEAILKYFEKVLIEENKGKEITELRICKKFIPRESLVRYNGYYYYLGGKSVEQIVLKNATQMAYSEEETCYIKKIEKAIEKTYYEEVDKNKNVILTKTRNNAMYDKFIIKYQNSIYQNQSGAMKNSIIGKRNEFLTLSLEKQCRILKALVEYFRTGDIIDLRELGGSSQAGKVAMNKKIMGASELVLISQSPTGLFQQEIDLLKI

[3] = tested on: T2, OMNI-53 (Clostridium sp. AF02-29); experiment: cell_activity; settings: E. coli plasmid depletion; PAM NRTA
[4] = tested on: T3, OMNI-39 (Butyrivibrio sp. AC2005); experiment: cleavage_in_vitro; settings: TXTL; PAM NNGHAD (specific NNGYAA)
T3 sequence: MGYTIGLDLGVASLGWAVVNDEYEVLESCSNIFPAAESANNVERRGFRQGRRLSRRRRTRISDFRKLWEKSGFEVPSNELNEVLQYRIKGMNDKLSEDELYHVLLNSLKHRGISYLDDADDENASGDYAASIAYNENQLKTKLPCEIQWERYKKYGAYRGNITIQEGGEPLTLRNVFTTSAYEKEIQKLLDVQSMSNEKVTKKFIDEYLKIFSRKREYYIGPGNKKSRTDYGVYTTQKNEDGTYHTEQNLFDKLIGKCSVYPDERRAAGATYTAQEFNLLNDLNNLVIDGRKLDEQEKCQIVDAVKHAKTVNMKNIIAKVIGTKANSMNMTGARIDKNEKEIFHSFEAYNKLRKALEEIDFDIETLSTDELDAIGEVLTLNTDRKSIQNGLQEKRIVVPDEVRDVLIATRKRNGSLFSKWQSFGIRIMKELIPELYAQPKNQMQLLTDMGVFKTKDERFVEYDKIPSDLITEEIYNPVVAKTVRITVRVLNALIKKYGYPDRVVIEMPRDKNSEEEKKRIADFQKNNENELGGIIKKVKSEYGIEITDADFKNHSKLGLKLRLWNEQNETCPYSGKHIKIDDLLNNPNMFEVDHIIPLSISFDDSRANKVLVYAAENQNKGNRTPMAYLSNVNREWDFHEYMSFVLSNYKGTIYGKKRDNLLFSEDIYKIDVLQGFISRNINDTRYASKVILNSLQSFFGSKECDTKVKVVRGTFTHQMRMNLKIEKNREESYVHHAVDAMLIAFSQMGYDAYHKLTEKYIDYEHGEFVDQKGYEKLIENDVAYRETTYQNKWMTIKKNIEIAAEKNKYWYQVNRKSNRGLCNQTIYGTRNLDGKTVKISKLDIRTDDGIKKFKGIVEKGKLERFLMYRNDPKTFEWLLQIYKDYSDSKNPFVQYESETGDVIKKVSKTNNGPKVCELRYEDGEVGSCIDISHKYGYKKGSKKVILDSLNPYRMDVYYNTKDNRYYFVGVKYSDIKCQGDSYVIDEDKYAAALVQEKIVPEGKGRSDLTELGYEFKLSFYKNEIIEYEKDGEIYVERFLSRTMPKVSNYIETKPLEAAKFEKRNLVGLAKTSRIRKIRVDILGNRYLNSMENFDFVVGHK

[5] = tested on: T3, OMNI-39 (Butyrivibrio sp. AC2005); experiment: cell_activity; settings: E. coli plasmid depletion; PAM NNGYAD (specific NNGYAA)
[6] = tested on: T4, OMNI-40 (bacterium LF-3); experiment: cleavage_in_vitro; settings: TXTL; PAM NYGRV
T4 sequence: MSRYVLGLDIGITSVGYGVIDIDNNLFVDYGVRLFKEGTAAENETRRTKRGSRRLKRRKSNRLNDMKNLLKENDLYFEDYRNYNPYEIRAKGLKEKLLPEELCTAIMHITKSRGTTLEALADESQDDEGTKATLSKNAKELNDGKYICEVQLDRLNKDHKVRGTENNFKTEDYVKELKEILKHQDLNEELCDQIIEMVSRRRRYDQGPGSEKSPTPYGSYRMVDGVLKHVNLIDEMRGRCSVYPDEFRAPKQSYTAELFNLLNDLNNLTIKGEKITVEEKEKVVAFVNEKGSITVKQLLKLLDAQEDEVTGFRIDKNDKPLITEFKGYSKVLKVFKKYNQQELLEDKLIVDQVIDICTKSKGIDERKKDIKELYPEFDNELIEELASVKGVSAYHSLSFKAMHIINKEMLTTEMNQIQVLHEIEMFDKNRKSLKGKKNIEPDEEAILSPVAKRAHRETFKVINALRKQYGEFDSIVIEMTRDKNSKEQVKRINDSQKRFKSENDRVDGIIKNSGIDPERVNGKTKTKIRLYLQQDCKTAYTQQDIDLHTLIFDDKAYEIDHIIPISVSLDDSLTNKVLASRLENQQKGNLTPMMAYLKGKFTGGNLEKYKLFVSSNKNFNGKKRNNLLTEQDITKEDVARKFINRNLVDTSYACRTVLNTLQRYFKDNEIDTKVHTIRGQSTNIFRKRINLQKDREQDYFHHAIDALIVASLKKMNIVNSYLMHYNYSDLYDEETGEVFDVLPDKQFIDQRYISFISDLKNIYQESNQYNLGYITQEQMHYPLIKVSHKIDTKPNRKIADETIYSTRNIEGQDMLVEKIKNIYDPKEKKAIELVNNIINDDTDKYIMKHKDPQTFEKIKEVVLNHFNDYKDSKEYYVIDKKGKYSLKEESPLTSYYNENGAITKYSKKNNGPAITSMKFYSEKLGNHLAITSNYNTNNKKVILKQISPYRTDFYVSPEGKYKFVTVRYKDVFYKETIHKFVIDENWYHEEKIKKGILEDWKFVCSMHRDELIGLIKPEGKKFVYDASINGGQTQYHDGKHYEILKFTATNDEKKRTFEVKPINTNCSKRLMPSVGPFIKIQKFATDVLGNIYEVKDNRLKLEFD

[7] = tested on: T4, OMNI-40 (bacterium LF-3); experiment: cell_activity; settings: E. coli plasmid depletion; PAM NYGRV (specific NYGAV)

GGAAGAGCAGAGCCUUGGUCUCGCUGUGGCUUGGAGGGAAUCGUGAAAACGAUUGCUUCGCAAGUCAUAGUAAAGCAAUAGUCAGCGAAAGGUUUGCUCACGGAGCAUUCCGUCGAGUACCCUUUGACGCCUCCCAGCGGGGCGUCUUUUUUU / GGAAGAGCAGAGCCTTGGTCTCNNNNNNNN / NNNNNNNNGAGACCAAGGCTCTGCTCTTCC [OMNI-36 T2 sgRNA V1 ; pbPOS T2 protospacer 8N PAM library]
activity (1-depletion score) [1]: 0.99

GGAAGAGCAGAGCCUUGGUCUCGUUUGAGAACCAUGGAAACAUGGUGAGUGCAAAUAAGGAUUAUCCGAAAUUGUAUGCCCGCAUUGUGCGGCAAUAAAAAGGCUCGAAAGAGUCUUUUU / GGAAGAGCAGAGCCTTGGTCTCNNNNNNNN / NNNNNNNNGAGACCAAGGCTCTGCTCTTCC [OMNI-53 T2 sgRNA V1 ; pbPOS T2 protospacer 8N PAM library]
activity (1-depletion score) [2]: 0.97 | activity (1-depletion score) [3]: 1

GGAAGAGCAGAGCCUUGGUCUCGUUUUAGUACCUAGAGAAAGAAAUUUCUUUAGACCUACUAAAAUAAGGCUUUAUGCCGAGAUUAAAGGAUGCCGACGGGCAUCCUUUUUU / GGAAGAGCAGAGCCTTGGTCTCNNNNNNNN / NNNNNNNNGAGACCAAGGCTCTGCTCTTCC [OMNI-39 T2 sgRNA V2 ; pbPOS T2 protospacer 8N PAM library]
activity (1-depletion score) [4]: 0.95 | activity (1-depletion score) [5]: 0.99

GGAAGAGCAGAGCCUUGGUCUCGUUUUGUUACCAUAUGAUUGAAAAUUUAUAUGACCUAACAAAACAAGGGUUUAUCCCGGACUCGGCUCUUCGGAGCCUUUUU / GGAAGAGCAGAGCCTTGGTCTCNNNNNNNN / NNNNNNNNGAGACCAAGGCTCTGCTCTTCC [OMNI-40 T2 sgRNA V2 ; pbPOS T2 protospacer 8N PAM library]
activity (1-depletion score) [6]: 0.97 | activity (1-depletion score) [7]: 0.95
